Like-named read-outs stand apart in the source and are kept apart here.
How the values were obtained:
[1] = biological target: recombinant water-soluble HLA-DR1 (DRA/DRB1*0101) (human)
[2] = biological target: recombinant water-soluble HLA-DR4 (DRA/DRB1*0401) (human)
[3] = biological target: recombinant water-soluble HLA-DR2 (DRB1*1501) (human)
[4] = biological target: recombinant water-soluble HLA-DR1 (DRA/DRB1*0101) (human); remark: listed apart in the source
[5] = biological target: recombinant water-soluble HLA-DR4 (DRA/DRB1*0401) (human); remark: listed apart in the source
[6] = biological target: T1, HLA-DR4 on antigen presenting cells (L cells transfected with DR4; Priess cells DRB1*0401/DRB4*0101) (human); experiment: cell-based or functional assay
T1 chain 1: not shown
T1 chain 2: not shown

[7] = biological target: T2, recombinant water-soluble HLA-DR4 (DRA/DRB1*0401) (human)
T2 chain 1: not shown
T2 chain 2: not shown

[8] = biological target: T3, recombinant water-soluble HLA-DR1 (DRA/DRB1*0101) (human)
T3 chain 1: not shown
T3 chain 2: not shown

[9] = biological target: T2, recombinant water-soluble HLA-DR4 …
[10] = biological target: T3, recombinant water-soluble HLA-DR1 …

Molecule: Copolymer 1, poly(Y,E,A,K)
- affinity determined by competition with biotinylated competitor [1]: 8 µM
- affinity determined by competition with biotinylated competitor [2]: 2.5 µM
- percent of added YEAK in the bound fraction [3]: 80%
- percent of added YEAK in the bound fraction [4]: > 95%
- percent of added YEAK in the bound fraction [5]: > 95%

Molecule: AEKYAAAAAAKAAAA (modifications not checked) [peptide SEQ ID NO: 6]
- inhibition of the DR4-restricted 3838 T cell clone (IL-2 secretion) [6]: > 80%

Molecule: AEEYAAAAAAKAAAA (modifications not checked) [peptide SEQ ID NO: 11]
- inhibition of the DR4-restricted 3838 T cell clone (IL-2 secretion) [6]: > 80%

Molecule: EAAYAAAAAAKAAAA (modifications not checked) [peptide SEQ ID NO: 16]
- affinity determined by competition with biotinylated competitor [7]: 5 µM
- inhibition of the DR4-restricted 3838 T cell clone (IL-2 secretion) [6]: > 80%

Molecule: EKKYAAAAAAKAAAA (modifications not checked) [peptide SEQ ID NO: 17]
- affinity determined by competition with biotinylated competitor [7]: 1.8 µM
- inhibition of the DR4-restricted 3838 T cell clone (IL-2 secretion) [6]: > 80%

Molecule: AAKYEAAAAAAAAAA (modifications not checked) [peptide SEQ ID NO: 28]
- inhibition of the DR4-restricted 3838 T cell clone (IL-2 secretion) [6]: > 80%

Molecule: AEKAYAAAAAAAAAA (modifications not checked) [peptide SEQ ID NO: 33]
- affinity determined by competition with biotinylated competitor ([7]; remark: other sources report otherwise): < 1 µM
- inhibition of the DR4-restricted 3838 T cell clone (IL-2 secretion) [6]: > 80%

Molecule: AKEYAAAAAAKAAAA (modifications not checked) [peptide SEQ ID NO: 7]
- affinity determined by competition with biotinylated competitor [8]: 19 µM
- affinity determined by competition with biotinylated competitor [7]: 4.5 µM

Molecule: AAEYAAAAAAKAAAA (modifications not checked) [peptide SEQ ID NO: 12]
- affinity determined by competition with biotinylated competitor [8]: 47 µM
- affinity determined by competition with biotinylated competitor [7]: 3.2 µM

Molecule: AAKYAEAAAAKAAAA (modifications not checked) [peptide SEQ ID NO: 15]
- affinity determined by competition with biotinylated competitor [8]: 42 µM
- affinity determined by competition with biotinylated competitor [7]: 1.8 µM
- affinity determined by competition with biotinylated competitor [9]: < 1 µM
- affinity determined by competition with biotinylated competitor [10]: 16 µM

Molecule: EAKYAAAAAAKAAAA (modifications not checked) [peptide SEQ ID NO: 18]
- affinity determined by competition with biotinylated competitor [8]: 33 µM
- affinity determined by competition with biotinylated competitor [7]: 4.4 µM
- affinity determined by competition with biotinylated competitor [9]: 3 µM

Molecule: AAAYAAAAAAKAAAA (modifications not checked) [peptide SEQ ID NO: 5]
- affinity determined by competition with biotinylated competitor [7]: 7 µM

Molecule: KEAYAAAAAAKAAAA (modifications not checked) [peptide SEQ ID NO: 10]
- affinity determined by competition with biotinylated competitor [7]: 4.5 µM

Molecule: EKAYAAAAAAKAAAA (modifications not checked) [peptide SEQ ID NO: 13]
- affinity determined by competition with biotinylated competitor [7]: 3.3 µM

Molecule: AAKYEAAAAAKAAAA (modifications not checked) [peptide SEQ ID NO: 14]
- affinity determined by competition with biotinylated competitor [7]: 4 µM

Molecule: AKKYEAAAAAAAAAA (modifications not checked) [peptide SEQ ID NO: 21]
- affinity determined by competition with biotinylated competitor [7]: 2.2 µM

Molecule: AAEYKAAAAAAAAAA (modifications not checked) [peptide SEQ ID NO: 26]
- affinity determined by competition with biotinylated competitor [7]: 1.8 µM

Molecule: AEYAKAAAAAAAAAA (modifications not checked) [peptide SEQ ID NO: 32]
- affinity determined by competition with biotinylated competitor [7]: 3 µM

Molecule: AYKAEAAAAAAAAAA (modifications not checked) [peptide SEQ ID NO: 35]
- affinity determined by competition with biotinylated competitor [7]: 1.3 µM

Molecule: AKYAEAAAAAAAAAA (modifications not checked) [peptide SEQ ID NO: 36]
- affinity determined by competition with biotinylated competitor [7]: 3 µM

From US20080207526A1
